Measured values as given in the supplement of paper PMC10567573.

B1: TCEB3B (parent)
chain: STTALGDKQRKANESKGTRESWDS
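Further: lentivirally expressed fusions sorted by FACS into six bins by GFP to DsRed ratio, PSI derived from sequencing read proportions per bin multiplied by bin number.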

Variants of: B1
Assay: protein stability index of a GFP-peptide fusion (GPS, HEK-293T) (PSI 1-6); higher = more stable
Conditions: c terminus: a fixed tail appended
Variant STTALGDKQRLANESKGTRESWDS [K11L] has a protein stability index of 3.65.
In the case of STTALGDKQRMANESKGTRESWDS [K11M], the protein stability index is reported as 3.86.
STTALGDKQRNANESKGTRESWDS [K11N] gave a protein stability index of 4.39.
Work on STTALGDKQRPANESKGTRESWDS [K11P] yielded a protein stability index of 4.23.
With STTALGDKQRQANESKGTRESWDS [K11Q] the protein stability index was 3.79.
STTALGDKQRRANESKGTRESWDS [K11R] gave a protein stability index of 3.57.
With STTALGDKQRSANESKGTRESWDS [K11S] the protein stability index was 4.03.
In the case of STTALGDKQRTANESKGTRESWDS [K11T], the protein stability index is reported as 4.22.
Work on STTALGDKQRVANESKGTRESWDS [K11V] yielded a protein stability index of 4.07.
Variant STTALGDKQRWANESKGTRESWDS [K11W] has a protein stability index of 3.99.
Variant STTALGDKQRYANESKGTRESWDS [K11Y] has a protein stability index of 4.
STTALGDKQRKCNESKGTRESWDS [A12C] gave a protein stability index of 3.99.
For STTALGDKQRKDNESKGTRESWDS [A12D], the protein stability index was 4.36.
STTALGDKQRKENESKGTRESWDS [A12E] gave a protein stability index of 4.49.
STTALGDKQRKFNESKGTRESWDS [A12F] gave a protein stability index of 3.76.
Work on STTALGDKQRKGNESKGTRESWDS [A12G] yielded a protein stability index of 4.21.
For STTALGDKQRKHNESKGTRESWDS [A12H], the protein stability index was 3.88.
STTALGDKQRKINESKGTRESWDS [A12I] showed a protein stability index of 3.63.
In the case of STTALGDKQRKKNESKGTRESWDS [A12K], the protein stability index is reported as 3.13.
In the case of STTALGDKQRKLNESKGTRESWDS [A12L], the protein stability index is reported as 4.03.
STTALGDKQRKMNESKGTRESWDS [A12M] showed a protein stability index of 3.83.
STTALGDKQRKNNESKGTRESWDS [A12N] showed a protein stability index of 4.2.
STTALGDKQRKPNESKGTRESWDS [A12P] showed a protein stability index of 4.17.
STTALGDKQRKQNESKGTRESWDS [A12Q] gave a protein stability index of 3.92.
With STTALGDKQRKRNESKGTRESWDS [A12R] the protein stability index was 3.56.
STTALGDKQRKSNESKGTRESWDS [A12S] gave a protein stability index of 4.3.
STTALGDKQRKTNESKGTRESWDS [A12T] showed a protein stability index of 3.59.
For STTALGDKQRKVNESKGTRESWDS [A12V], the protein stability index was 3.88.
STTALGDKQRKWNESKGTRESWDS [A12W] showed a protein stability index of 3.34.
In the case of STTALGDKQRKYNESKGTRESWDS [A12Y], the protein stability index is reported as 3.4.
STTALGDKQRKAAESKGTRESWDS [N13A] showed a protein stability index of 3.91.
In the case of STTALGDKQRKACESKGTRESWDS [N13C], the protein stability index is reported as 3.83.
In the case of STTALGDKQRKADESKGTRESWDS [N13D], the protein stability index is reported as 4.64.
For STTALGDKQRKAEESKGTRESWDS [N13E], the protein stability index was 4.87.
STTALGDKQRKAFESKGTRESWDS [N13F] showed a protein stability index of 3.67.
STTALGDKQRKAGESKGTRESWDS [N13G] gave a protein stability index of 3.45.
With STTALGDKQRKAHESKGTRESWDS [N13H] the protein stability index was 3.35.
For STTALGDKQRKAIESKGTRESWDS [N13I], the protein stability index was 3.59.
STTALGDKQRKAKESKGTRESWDS [N13K] gave a protein stability index of 3.65.
For STTALGDKQRKALESKGTRESWDS [N13L], the protein stability index was 3.67.
Variant STTALGDKQRKAMESKGTRESWDS [N13M] has a protein stability index of 3.7.
STTALGDKQRKAPESKGTRESWDS [N13P] showed a protein stability index of 3.83.
For STTALGDKQRKAQESKGTRESWDS [N13Q], the protein stability index was 4.1.
For STTALGDKQRKARESKGTRESWDS [N13R], the protein stability index was 3.12.
STTALGDKQRKASESKGTRESWDS [N13S] gave a protein stability index of 4.14.
For STTALGDKQRKATESKGTRESWDS [N13T], the protein stability index was 3.78.
Variant STTALGDKQRKAVESKGTRESWDS [N13V] has a protein stability index of 4.12.
Work on STTALGDKQRKAWESKGTRESWDS [N13W] yielded a protein stability index of 3.09.
With STTALGDKQRKAYESKGTRESWDS [N13Y] the protein stability index was 3.22.
Work on STTALGDKQRKANASKGTRESWDS [E14A] yielded a protein stability index of 3.15.
In the case of STTALGDKQRKANCSKGTRESWDS [E14C], the protein stability index is reported as 2.77.
STTALGDKQRKANDSKGTRESWDS [E14D] showed a protein stability index of 3.89.
For STTALGDKQRKANFSKGTRESWDS [E14F], the protein stability index was 3.
With STTALGDKQRKANGSKGTRESWDS [E14G] the protein stability index was 3.85.
STTALGDKQRKANHSKGTRESWDS [E14H] gave a protein stability index of 3.88.
STTALGDKQRKANISKGTRESWDS [E14I] showed a protein stability index of 3.81.
Variant STTALGDKQRKANKSKGTRESWDS [E14K] has a protein stability index of 3.33.
Work on STTALGDKQRKANLSKGTRESWDS [E14L] yielded a protein stability index of 3.9.
For STTALGDKQRKANMSKGTRESWDS [E14M], the protein stability index was 3.65.
In the case of STTALGDKQRKANNSKGTRESWDS [E14N], the protein stability index is reported as 4.06.
Variant STTALGDKQRKANPSKGTRESWDS [E14P] has a protein stability index of 3.19.
In the case of STTALGDKQRKANQSKGTRESWDS [E14Q], the protein stability index is reported as 3.54.
Work on STTALGDKQRKANRSKGTRESWDS [E14R] yielded a protein stability index of 3.61.
With STTALGDKQRKANSSKGTRESWDS [E14S] the protein stability index was 3.82.
With STTALGDKQRKANTSKGTRESWDS [E14T] the protein stability index was 3.42.
For STTALGDKQRKANVSKGTRESWDS [E14V], the protein stability index was 3.34.
Work on STTALGDKQRKANWSKGTRESWDS [E14W] yielded a protein stability index of 2.73.
In the case of STTALGDKQRKANYSKGTRESWDS [E14Y], the protein stability index is reported as 2.95.
With STTALGDKQRKANEAKGTRESWDS [S15A] the protein stability index was 4.69.
Work on STTALGDKQRKANECKGTRESWDS [S15C] yielded a protein stability index of 3.58.
With STTALGDKQRKANEDKGTRESWDS [S15D] the protein stability index was 4.93.
With STTALGDKQRKANEEKGTRESWDS [S15E] the protein stability index was 4.97.
Variant STTALGDKQRKANEFKGTRESWDS [S15F] has a protein stability index of 3.94.
For STTALGDKQRKANEGKGTRESWDS [S15G], the protein stability index was 4.2.
In the case of STTALGDKQRKANEHKGTRESWDS [S15H], the protein stability index is reported as 3.93.
With STTALGDKQRKANEIKGTRESWDS [S15I] the protein stability index was 3.71.
STTALGDKQRKANEKKGTRESWDS [S15K] gave a protein stability index of 4.
Variant STTALGDKQRKANELKGTRESWDS [S15L] has a protein stability index of 3.52.
STTALGDKQRKANEMKGTRESWDS [S15M] gave a protein stability index of 3.98.
STTALGDKQRKANENKGTRESWDS [S15N] gave a protein stability index of 4.24.
With STTALGDKQRKANEPKGTRESWDS [S15P] the protein stability index was 4.34.
Work on STTALGDKQRKANEQKGTRESWDS [S15Q] yielded a protein stability index of 4.03.
With STTALGDKQRKANERKGTRESWDS [S15R] the protein stability index was 3.65.
Variant STTALGDKQRKANETKGTRESWDS [S15T] has a protein stability index of 3.38.
Variant STTALGDKQRKANEVKGTRESWDS [S15V] has a protein stability index of 3.38.
STTALGDKQRKANEWKGTRESWDS [S15W] showed a protein stability index of 3.72.
STTALGDKQRKANEYKGTRESWDS [S15Y] gave a protein stability index of 3.64.
STTALGDKQRKANESAGTRESWDS [K16A] gave a protein stability index of 4.45.
In the case of STTALGDKQRKANESCGTRESWDS [K16C], the protein stability index is reported as 2.97.
With STTALGDKQRKANESDGTRESWDS [K16D] the protein stability index was 4.96.
With STTALGDKQRKANESEGTRESWDS [K16E] the protein stability index was 5.
STTALGDKQRKANESFGTRESWDS [K16F] showed a protein stability index of 3.8.
In the case of STTALGDKQRKANESGGTRESWDS [K16G], the protein stability index is reported as 4.52.
With STTALGDKQRKANESHGTRESWDS [K16H] the protein stability index was 4.14.
